Experimental data: patent publication US20250263481A1 (SHIJIAZHUANG YILING PHARMACEUTICAL, published 2025)

Tests used:
[1] = target: human CLDN18.2 expressed on cells (human); experiment: cell-based or functional assay
[2] = target: human CLDN18.2 expressed on cells (human); experiment: cell-based or functional assay; remark: listed apart in the source
[3] = target: human CLDN18.2 expressed on cells (human); experiment: cell-based or functional assay; remark: listed apart in the source
[4] = target: human CLDN18.2 expressed on cells (human); experiment: cell-based or functional assay; remark: listed apart in the source
[5] = target: T1, human CLDN18.2 expressed on cells (human); experiment: flow cytometry (geometric mean, Alexa Fluor 647 anti-human IgG Fc secondary) on CLDN18.2-expressing 293T cells
T1 construct: also called huCLDN18.2; CLDN18.2-expressing 293T cells
Method: (§1) CLDN18.2-expressing 293T cells and CLDN18.1-expressing 293T cells at a density of 2×10⁶ cells/ml in FACS buffer ([…]) were mixed with a dilution series ([…] in FACS buffer) of the chimeric antibodies, the reference antibody, or a IgG negative control (50 μL) in a 96-well V-bottom plate and incubated for 30 min on ice. After a wash with 200 μL/well FACS buffer, cells were resuspended in 30 μL/well secondary antibody Alexa Fluor® 647 AffiniPure Goat Anti-Human IgG, […] specific (Jackson, Cat. #109-605-098) and incubated for 20 min on ice. After three washes with 200 μL/well FACS buffer, cells were resuspended with 150 μl/well FACS buffer and subjected to FACS using BD LSR II Flow Cytometer (HTS). Geometric mean was used for data analysis and plots were made using Prism GraphPad.

[6] = target: T2, human CLDN18.1 expressed on cells (human, UniProt P56856 1-261); experiment: flow cytometry (geometric mean, Alexa Fluor 647 anti-human IgG Fc secondary) on CLDN18.1-expressing 293T cells
T2 construct: also called huCLDN18.1; CLDN18.1-expressing 293T cells
Method: as §1

[7] = target: T1, human CLDN18.2 expressed on cells; experiment: KinExA 4000, antibody constant, CHO cells over-expressing huCLDN18.2 titrated
Method: A KinExA 4000 instrument was also used to measure binding affinity of the antibodies to surface protein of intact cells, i.e., CHO cells over-expressing huCLDN18.2. Concentration of the antibodies was held constant (CBP) and concentration of whole cells with surface protein were varied (titrant). Concentration of whole cells with surface proteins were diluted three-fold. Titrated cells were incubated with the constant binding partner (CBP). Once equilibrium was reached, the samples were centrifuged, the supernatants were recovered, and the free CBP was detected with a fluorescently labeled anti-CBP molecule.
To establish a more accurate Kd, two equilibrium curves were prepared and analyzed. One curve with low concentration of CBP at 100 pM (200 pM binding sites) and 10⁶ cells/mL with three-fold dilutions, and one curve with high concentration of CBP at 10 nM (20 nM binding sites) and 10⁶ cells/mL with three-fold dilutions. The KinExA 4000 measured the amount of unbound CBP in solution. Analysis was performed using Sapidyne Instruments n-Curve Analysis Software version 4.4.26.

[8] = target: T1, human CLDN18.2 expressed on cells; experiment: flow cytometry (percent FITC-positive cells, GAH-FITC secondary) on CHO cells expressing huCLDN18.2
Method: CHO cells expressing huCLDN18.2 were used to assess the binding of the antibodies. Cells were seeded at 5×10⁵ cells per 100 μl into a well of a 96-well plate for each sample. Then, 100 μl of each serially diluted antibody was added to the cells, each dilution started at 40 µg/ml and was diluted 5-fold. Therefore, the final concentration of each antibody starts at 20 µg/ml followed by a 5-fold serial dilution. After 1 hour, the cells were washed twice and 100 μl of GAH-FITC (1:200 dilution) was added to each well. After 30 minutes, the cells were washed twice and resuspended in 120 μl of FACS buffer. The cells were analyzed via flow cytometry.
Unstained cells were used as a reference to set up overall target cell gating and to establish the FITC-negative populations, allowing us to establish the FITC-positive cell gate for each cell line. Additionally, the mean fluorescence intensity (MFI) of the entire population of cells was calculated to secondarily validate the FITC-positive results. The ratio of the gated positive cell number to the total live cell number is taken as the percentage of positive cells.

[9] = target: T1, human CLDN18.2 expressed on cells; experiment: cell-based or functional assay; remark: listed apart in the source

T2 sequence (P56856 whole entry): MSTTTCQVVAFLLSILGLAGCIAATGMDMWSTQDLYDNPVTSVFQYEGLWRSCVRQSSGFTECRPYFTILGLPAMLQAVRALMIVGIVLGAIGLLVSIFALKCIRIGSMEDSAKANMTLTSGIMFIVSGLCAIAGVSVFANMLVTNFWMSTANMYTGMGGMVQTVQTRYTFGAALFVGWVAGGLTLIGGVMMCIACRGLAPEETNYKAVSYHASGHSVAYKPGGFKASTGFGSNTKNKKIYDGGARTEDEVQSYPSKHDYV

Binder | CDC on CT26 CLDN18.2 cells, LDH: EC50 [1] | CDC on KATOIII CLDN18.2 cells, LDH: EC50 [2] | ADCC on KATOIII CLDN18.2 cells, LDH: EC50 [3] | ADCC on NCI-N87 CLDN18.2 cells, LDH: EC50 [4] | EC50 (read off the curve) [5] | binding result [6] | Kd [7] | EC50 (read off the curve) [8] | ADCC, FACS: EC50 [9] | ADCC, LDH: EC50 [9] | CDC on CT26 CLDN18.2 cells, LDH: max (% cytotoxity) [1] | CDC on KATOIII CLDN18.2 cells, LDH: max (% cytotoxity) [2] | ADCC on KATOIII CLDN18.2 cells, LDH: max (% cytotoxity) [3] | ADCC on NCI-N87 CLDN18.2 cells, LDH: max (% cytotoxity) [4]
YL-G1-19-02 (antibody, human IgG1, kappa, Mouse/human chimeric IgG1 kappa, first generation; also called YL-G1-02) heavy: not shown light: DIVMTQSPSSLTVTAGEKVTMSCKSSQSLLNSGNQKNYLTWYQQRPGQPPKLLIYWASTRESGVPVRFTGSGSGTDFTLTISSVQAEDLAVYYCQNAYIYPLTFGTGTKLELKRTVAAPSVFIFPPSDEQLKSGTASVVCLLNNFYPREAKVQWKVDNALQSGNSQESVTEQDSKDSTYSLSSTLTLSKADYEKHKVYACEVTHQGLSSPVTKSFNRGEC | 0.26 nM | 1.95 nM | 0.16 nM | 0.072 nM | ~0.7 µg/mL | no binding (tested: about 30 ug/ml) | – | – | ~0.224 nM | 0.3 nM | 73.4% | 35.4% | 19.9% | 16.8%
YL-G1-19-03 (antibody, human IgG1, kappa, Mouse/human chimeric IgG1 kappa, first generation) heavy: not shown light: DIVMTQSPSSLTVTAGEKVTMSCKSSQSLLNSGNQKNYLTWYQQKPGQPPKLLIYWASTRESGVPDRFTGSGSGTDFTLTISSVQAEDLAIYYCQNNYFYPLTFGAGTRLELKRTVAAPSVFIFPPSDEQLKSGTASVVCLLNNFYPREAKVQWKVDNALQSGNSQESVTEQDSKDSTYSLSSTLTLSKADYEKHKVYACEVTHQGLSSPVTKSFNRGEC | 0.24 nM | ~4.98 nM | 0.21 nM | 0.13 nM | ~0.6 µg/mL | no binding (tested: about 30 ug/ml) | – | – | – | – | 62.2% | 67% | 16.7% | 15.2%
YL-G1-19-01 (antibody, human IgG1, kappa, V domains shown, also called chimeric antibody with the variable region of one of the mouse mAbs) VH: QVQLQQSGAELVRPGTSVKVSCKASGYAFTNYLIEWVKQRPGQGLEWIGVINPGSGGTNYNEKFKGKATLTADKSSNTAYMQLSSLTSEDSAVYFCARVYYGNSFGYWGQGTLVTVSA VL: DIVMTQSPSSLTVTAGEKVTMSCKSSQSLLNSGNQKNYLTWYQQKPGQPPKLLIYWASTRESGVPDRFTGSGSGTDFTLTISSVQAEDLAVYYCQNEYFYPFTFGSGTKLEIKR | – | – | – | – | ~1 µg/mL | no binding (tested: about 30 ug/ml) | – | – | – | – | – | – | – | –

Continued, in another order:

CDC on CT26 CLDN18.2 cells, LDH: EC50 [1] | CDC on KATOIII CLDN18.2 cells, LDH: EC50 [2] | ADCC on KATOIII CLDN18.2 cells, LDH: EC50 [3] | ADCC on NCI-N87 CLDN18.2 cells, LDH: EC50 [4] | EC50 (read off the curve) [5] | binding result [6] | Kd [7] | EC50 (read off the curve) [8] | ADCC, FACS: EC50 [9] | ADCC, LDH: EC50 [9] | Binder | CDC on CT26 CLDN18.2 cells, LDH: max (% cytotoxity) [1] | CDC on KATOIII CLDN18.2 cells, LDH: max (% cytotoxity) [2] | ADCC on KATOIII CLDN18.2 cells, LDH: max (% cytotoxity) [3] | ADCC on NCI-N87 CLDN18.2 cells, LDH: max (% cytotoxity) [4]
0.19 nM | 4.76 nM | 0.14 nM | 0.067 nM | ~0.7 µg/mL | no binding (tested: about 30 ug/ml) | – | – | – | – | YL-G1-19-04 (antibody, human IgG1, kappa, Mouse/human chimeric IgG1 kappa, first generation) heavy: not shown light: DIVMTQSPSSLTVTAGEKVTLSCKSSQSLLNSGNQKNYLTWYQQRPGQPPKLLIYWASTRESGVPVRFTGSGSGADFTLTISSVQAEDLAVYFCQNAYFYPLTFGTGTKLELRRTVAAPSVFIFPPSDEQLKSGTASVVCLLNNFYPREAKVQWKVDNALQSGNSQESVTEQDSKDSTYSLSSTLTLSKADYEKHKVYACEVTHQGLSSPVTKSFNRGEC | 59.2% | 48.3% | 15.4% | 12.6%
0.12 nM | 2.4 nM | 0.021 nM | 0.0089 nM | – | – | 0.0131 nM | ~0.0003 µg/mL | – | – | YL-G2-D (antibody, human IgG1, kappa, Second generation, Fc-engineered form of YL-G1-19-04) heavy: QLQQSGPELEKPGASVKISCKASGYSFTGYKMNWVKQSNGESLEWIGNIDPYYGDTTYTQKFKGKATFTVDTSSSTAYMQLKSLTSEDSAVYFCARYNRGNTMDYWGQGTSVTVSSASTKGPSVFPLAPSSKSTSGGTAALGCLVKDYFPEPVTVSWNSGALTSGVHTFPAVLQSSGLYSLSSVVTVPSSSLGTQTYICNVNHKPSNTKVDKRVEPKSCDKTHTCPPCPAPELVGGPSVFLLPPKPKDTLMISRTPEVTCVVVDVSHEDPEVKFNWYVDGVEVHNAKTKPPEEQYNSTLRVVSVLTVLHQDWLNGKEYKCKVSNKALPAPIEKTISKAKGQPREPQVYTLPPSREEMTKNQVSLTCLVKGFYPSDIAVEWESNGQPENNYKTTPLVLDSDGSFFLYSKLTVDKSRWQQGNVFSCSVMHEALHNHYTQKSLSLSPGK light: DIVMTQSPSSLTVTAGEKVTLSCKSSQSLLNSGNQKNYLTWYQQRPGQPPKLLIYWASTRESGVPVRFTGSGSGADFTLTISSVQAEDLAVYFCQNAYFYPLTFGTGTKLELRRTVAAPSVFIFPPSDEQLKSGTASVVCLLNNFYPREAKVQWKVDNALQSGNSQESVTEQDSKDSTYSLSSTLTLSKADYEKHKVYACEVTHQGLSSPVTKSFNRGEC | 71.8% | 49.2% | 18.4% | 18.6%
0.1 nM | ~6.04 nM | 0.019 nM | 0.0078 nM | – | – | 0.0386 nM | ~0.0006 µg/mL | – | – | YL-G2-C (antibody, human IgG1, kappa, Second generation, Fc-engineered) heavy: QIQLVQSGPELRKPGETVKISCKASGFPFTTDGMSWVKQAPGKGLKWMGWINTYSGVPTYADDFKGRVAFSLETSASTAYLQIKNLKNEDTATYFCARFRRGNALDNWGQGTSVTVSSASTKGPSVFPLAPSSKSTSGGTAALGCLVKDYFPEPVTVSWNSGALTSGVHTFPAVLQSSGLYSLSSVVTVPSSSLGTQTYICNVNHKPSNTKVDKRVEPKSCDKTHTCPPCPAPELVGGPSVFLLPPKPKDTLMISRTPEVTCVVVDVSHEDPEVKFNWYVDGVEVHNAKTKPPEEQYNSTLRVVSVLTVLHQDWLNGKEYKCKVSNKALPAPIEKTISKAKGQPREPQVYTLPPSREEMTKNQVSLTCLVKGFYPSDIAVEWESNGQPENNYKTTPLVLDSDGSFFLYSKLTVDKSRWQQGNVFSCSVMHEALHNHYTQKSLSLSPGK light: DIVMTQSPSSLTVTAGEKVTMSCKSSQSLLNSGNQKNYLTWYQQKPGQPPKLLIYWASTRESGVPDRFTGSGSGTDFTLTISSVQAEDLAIYYCQNNYFYPLTFGAGTRLELKRTVAAPSVFIFPPSDEQLKSGTASVVCLLNNFYPREAKVQWKVDNALQSGNSQESVTEQDSKDSTYSLSSTLTLSKADYEKHKVYACEVTHQGLSSPVTKSFNRGEC | 65.2% | 74.6% | 17.6% | 14.9%
